Among the data in PMC5805711 (Scientific Reports, 2018) are Kd values, retold here.

Test [1] addresses T1, ubiquitin phosphorylated at serine-65 (pUb) (UniProt P0CG48 1-76, phosphoserine at 65).
T1 construct: ubiquitin, the cut product of a ubiquitin precursor, phosphorylated at S65; Uniformly 15N-labelled for NMR; In solution two conformers in slow, pH-dependent exchange: native-like pUb^nat and alternate pUb^alt; both are this one molecule; also called S65 pUb; phosphorylated Ub
Briefly: NMR titration; 15N-labeled Ub variant titrated with unlabeled UBA; amide CSPs in 1H-15N spectra, global fit to a single-site binding model; 23 °C, 20 mM sodium phosphate pH 6.8, 0.02% NaN3, 7% D2O. Particulars: both partners purified.

Test [2] addresses T2, wild-type ubiquitin (Ub^WT) (UniProt P0CG48 1-76).
T2 construct: ubiquitin, the cut product of a ubiquitin precursor; last residue G76; Uniformly 15N-labelled for NMR; also called WT Ub; source: grown and purified using the standard Ub purification protocol; grown in 15N-enriched minimal media for NMR
The test is described as above. Particulars: both partners purified.

B1: ubiquitin-associated domain (UBA) of human ubiquilin-1/hPLIC1, V545Y (domain or fragment, UniProt Q9UMX0 545-586, looked up)
chain: YRFQQQLEQLSAMGFLNREANLQALIATGGDINAAIERLLGS
notes: UBA domain of human ubiquilin-1 (hPLIC1) with V545Y; V545Y was introduced to allow concentration determination by absorbance at 280 nm; Unlabelled in the titrations; also called ubiquilin-1 UBA
B1: the Kd came out at 8 ± 2.5 µM in test [1] and 4.9 ± 1.2 µM in test [2].
